Source: patent publication EP4628507A1
Read-outs that look alike come from different tables or passages of the source.

Experiments:
[1] = biological target: human 4-1BB on the surface of HEK293-Hu4-1BB cells (human) (UniProt Q07011); experiment: cell-based or functional assay
[2] = biological target: human CD16A-V176 on CHO / CHO-K1 cells (human) (UniProt P08637); experiment: flow cytometry on CHO-K1-CD16A V176 cells
[3] = biological target: human CLDN18.2 on cells (NUGC4-hi18.2 cells; SNU601 cells in the ADCC assay) (human) (UniProt P56856); experiment: flow cytometry on NUGC4-hi18.2 cells
[4] = biological target: human CD16A-V176 on CHO / CHO-K1 cells (human) (UniProt P08637); experiment: flow cytometry on CHO-K1-CD16A V176 cells, isotype control
[5] = biological target: human 4-1BB on the surface of HEK293-Hu4-1BB cells (human) (UniProt Q07011); experiment: flow cytometry on HEK293-Hu4-1BB cells, isotype control
[6] = biological target: human 4-1BB on the surface of HEK293-Hu4-1BB cells (human) (UniProt Q07011); experiment: as above; remark: listed apart in the source
[7] = biological target: human CLDN18.2 on cells (NUGC4-hi18.2 cells; SNU601 cells in the ADCC assay) (human) (UniProt P56856); experiment: cell-based or functional assay
[8] = biological target: human 4-1BB on the surface of HEK293-Hu4-1BB cells (human) (UniProt Q07011); experiment: cell-based or functional assay; remark: listed apart in the source
[9] = biological target: human CLDN18.2 on cells (NUGC4-hi18.2 cells; SNU601 cells in the ADCC assay) (human) (UniProt P56856); experiment: flow cytometry on NUGC4-hi18.2 cells, isotype control
[10] = biological target: human 4-1BB on the surface of HEK293-Hu4-1BB cells (human) (UniProt Q07011); experiment: flow cytometry on HEK293-Hu4-1BB cells, isotype control; remark: listed apart in the source

Sequence of human CD16A-V176 on CHO / CHO-K1 cells (human) (P08637 17-254 F176V): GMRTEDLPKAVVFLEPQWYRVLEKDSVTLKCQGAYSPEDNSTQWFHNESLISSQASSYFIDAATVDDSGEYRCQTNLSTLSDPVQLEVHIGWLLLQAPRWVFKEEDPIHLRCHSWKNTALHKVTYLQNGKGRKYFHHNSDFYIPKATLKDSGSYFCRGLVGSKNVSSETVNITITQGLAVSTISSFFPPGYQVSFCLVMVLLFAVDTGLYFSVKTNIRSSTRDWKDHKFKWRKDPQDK
Sequence of human 4-1BB on the surface of HEK293-Hu4-1BB cells (human) (Q07011 24-255): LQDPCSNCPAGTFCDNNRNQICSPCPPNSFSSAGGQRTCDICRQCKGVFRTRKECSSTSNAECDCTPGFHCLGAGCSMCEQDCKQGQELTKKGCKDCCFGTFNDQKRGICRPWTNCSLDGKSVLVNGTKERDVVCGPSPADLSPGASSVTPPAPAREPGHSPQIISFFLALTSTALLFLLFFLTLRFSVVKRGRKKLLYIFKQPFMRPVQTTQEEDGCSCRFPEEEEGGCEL

ADG106 (antibody)
Fold change in Emax, 4-1BB/NF-κB luciferase reporter, CLDN18.2 cross-linking [1]: 1.42 fold
Fold change in Emax, 4-1BB/NF-κB luciferase reporter, no cross-linking [1]: 1.13 fold

IMAB362 (antibody)
EC50 [2]: 0.0148 µM
Maximal fluorescence value [2]: 3390

TJ-CD4B (bispecific antibody)
Maximal fluorescence value [2]: 113
EC50 [3]: 0.0162 µM
Maximal fluorescence value [3]: 89300

isotype IgG1 antibody (control)
Maximal fluorescence value [4]: 1590
Maximal fluorescence value [5]: 123
Maximal fluorescence value [6]: 67
ADCC maximum killing rate, NUGC4-hi18.2 target cells, PBMC donor S2001102 (V176) [7]: 21.8%
ADCC maximum killing rate, NUGC4-hi18.2 target cells, PBMC donor SC190061 (F176) [7]: 10.7%
ADCC maximum killing rate, SNU601 target cells, PBMC donor S2001102 (V176) [7]: 22.7%
ADCC maximum killing rate, SNU601 target cells, PBMC donor SC190061 (F176) [7]: 11.4%
ADCP maximum phagocytosis rate, macrophages against NUGC4-hi18.2 cells [7]: 19.8%
Emax, 4-1BB/NF-κB luciferase reporter, FcγRIIb cross-linking (relative to the antibody-free group) [8]: 1.12
Emax, 4-1BB/NF-κB luciferase reporter, no FcγRIIb cross-linking (relative to the antibody-free group) [8]: 1.1
Fold change in Emax, 4-1BB/NF-κB luciferase reporter, CLDN18.2 cross-linking [8]: 1.17 fold
Fold change in Emax, 4-1BB/NF-κB luciferase reporter, no CLDN18.2 cross-linking [8]: 1.16 fold
Fold change in Emax, 4-1BB/NF-κB luciferase reporter, CLDN18.2 cross-linking [1]: 1.15 fold
Fold change in Emax, 4-1BB/NF-κB luciferase reporter, no cross-linking [1]: 1.17 fold
Maximal fluorescence value [9]: 107
Maximal fluorescence value [10]: 106
